Source: PMC5443830

Biological target: Cry1AcMod activated toxin (Bacillus thuringiensis) (UniProt P05068)
Test: SDS-PAGE and western blot of the 200 kDa oligomer band

Cry1AcMod activated toxin (from UniProt P05068 1-1178) (domain or fragment)
optical density of the 200 kDa oligomer band with BBMV from the resistant strain relative to BBMV from the susceptible strain (=100%): 100%
